One molecule from publication PMC3525768 can be followed below.

This series concerns the target T1, AgrAC (AgrA C-terminal LytTR domain) (Staphylococcus aureus, UniProt P0A0I7 137-238).
T1 sequence: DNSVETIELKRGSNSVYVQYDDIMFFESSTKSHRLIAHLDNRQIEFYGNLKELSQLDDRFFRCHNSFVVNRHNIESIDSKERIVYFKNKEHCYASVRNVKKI
Nature of the series: EMSA.

B1: 19-bp AgrA target DNA duplex (dsDNA)
DNA 1: ATTTAACAGTTAAGTATTT
DNA 2: AAATACTTAACTGTTAAAT
As for B1, the binding result is reported as “binds”.
